The values below come from article PMC7350285.

Series [1] addresses BRG1 AT-BD R1502H (human, UniProt P51532 1434-1569, R1502H). Briefly: BLI. In general terms: Biolayer interferometry detects binding as a change in optical thickness at a sensor tip.
Series [2] deals with BRG1 AT-BD P1456L (human, UniProt P51532 1434-1569, P1456L). The series can be described thus: BLI.

The Kd is the equilibrium constant for the complex coming apart. High values mean a looser complex, low ones a tighter complex.

BRG1 AT-BD P1456L, sequence (P51532 1434-1569 P1456L): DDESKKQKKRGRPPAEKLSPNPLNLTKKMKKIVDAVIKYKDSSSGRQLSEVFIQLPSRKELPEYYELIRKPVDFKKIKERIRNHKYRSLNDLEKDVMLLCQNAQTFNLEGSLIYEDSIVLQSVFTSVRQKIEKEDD
BRG1 AT-BD R1502H, sequence (P51532 1434-1569 R1502H): as the sequence (P51532 1434-1569 P1456L) above, with L23P, R69H counted along it

B1: biotinylated SELEX-DNA (dsDNA)
DNA 1: CCTCAATTAAATCTC
DNA 2: GAGATTTAATTGAGG
Turning to B1, the results for the Kd in series [1] and in series [2] were 2400 ± 200 nM and 1200 ± 100 nM, respectively.
